# Reference: IntAct's records for PubMed 29039417
# B1: BBSome complex member BBS5 (Homo sapiens), Q8N3I7 (parent)
# chain: MSVLDALWEDRDVRFDLSAQQMKTRPGEVLIDCLDSIEDTKGNNGDRGRLLVTNLRILWHSLALSRVNVSVGYNCILNITTRTANSKLRGQTEALYILTKCNSTRFEFIFTNLVPGSPRLFTSVMAVHRAYETSKMYRDFKLRSALIQNKQLRLLPQEHVYDKINGVWNLSSDQGNLGTFFITNVRIVWHANMNDSFNVSIPYLQIRSIKIRDSKFGLALVIESSQQSGGYVLGFKIDPVEKLQESVKEINSLHKVYSASPIFGVDYEMEEKPQPLEALTVEQIQDDVEIDSDGHTDAFVAYFADGNKQQDREPVFSEELGLAIEKLKDGFTLQGLWEVMS
# partner: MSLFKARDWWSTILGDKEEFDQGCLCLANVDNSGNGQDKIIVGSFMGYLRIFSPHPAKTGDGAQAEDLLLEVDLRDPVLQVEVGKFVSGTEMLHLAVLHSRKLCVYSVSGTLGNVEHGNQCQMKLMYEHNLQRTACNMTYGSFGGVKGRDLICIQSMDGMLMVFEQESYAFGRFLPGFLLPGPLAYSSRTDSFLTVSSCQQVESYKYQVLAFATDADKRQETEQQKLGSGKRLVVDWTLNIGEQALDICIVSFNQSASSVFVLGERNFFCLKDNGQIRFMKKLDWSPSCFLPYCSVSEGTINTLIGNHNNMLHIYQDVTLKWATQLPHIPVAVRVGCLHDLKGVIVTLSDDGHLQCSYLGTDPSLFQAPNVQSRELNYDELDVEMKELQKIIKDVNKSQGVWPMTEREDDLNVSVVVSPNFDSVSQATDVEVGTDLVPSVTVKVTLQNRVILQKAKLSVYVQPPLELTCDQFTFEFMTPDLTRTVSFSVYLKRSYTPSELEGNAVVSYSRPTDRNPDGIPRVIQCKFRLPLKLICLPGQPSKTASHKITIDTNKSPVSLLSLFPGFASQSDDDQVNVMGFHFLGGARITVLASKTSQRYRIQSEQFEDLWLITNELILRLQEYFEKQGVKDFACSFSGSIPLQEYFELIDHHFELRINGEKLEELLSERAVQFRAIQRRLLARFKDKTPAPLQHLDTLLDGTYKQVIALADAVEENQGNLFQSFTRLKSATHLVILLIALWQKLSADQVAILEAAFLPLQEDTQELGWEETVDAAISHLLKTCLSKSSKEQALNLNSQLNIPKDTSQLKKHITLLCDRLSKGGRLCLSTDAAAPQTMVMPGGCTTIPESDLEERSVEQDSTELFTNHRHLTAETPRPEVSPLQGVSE
# Variants of: B1
# Settings: with pthb1_human BBS9, Q3SYG4
row,Variant,effect of a mutation on the interaction
1,V247I,disrupting interaction strength
2,V247E,with no effect
3,V247A,with no effect
4,V247K,with no effect
5,I250A,with no effect
6,I250K,with no effect
7,I250E,with no effect
8,I262E,with no effect
9,I262A,with no effect
10,I262K,with no effect
11,G230E,with no effect
12,G230A,with no effect
13,G230K,with no effect
14,E241A,with no effect
15,E241K,with no effect
16,E271A,with no effect
17,E271K,with no effect
18,M269K,with no effect
19,M269A,with no effect
20,M269E,with no effect
21,P275A,with no effect
22,V265E,with no effect
23,V265A,with no effect

row,Variant,effect of a mutation on the interaction
1,V265K,with no effect
2,K255A,with no effect
3,K255E,with no effect
4,Q227K,with no effect
5,Q227E,with no effect
6,Q227A,disrupting interaction strength
7,S246K,with no effect
8,S246A,with no effect
9,S246E,with no effect
10,G229A,with no effect
11,G229K,with no effect
12,G229S,disrupting interaction strength
13,G229E,with no effect
14,K272A,with no effect
15,K272E,with no effect
16,S252K,with no effect
17,S252E,with no effect
18,S252A,with no effect
19,D238A,with no effect
20,D238E,with no effect
21,D238N,disrupting interaction strength
22,D238K,with no effect
23,D266K,with no effect

row,Variant,effect of a mutation on the interaction
1,D266E,with no effect
2,D266A,with no effect
3,S260K,with no effect
4,S260A,with no effect
5,S260E,with no effect
6,P261K,with no effect
7,P261E,with no effect
8,P261A,with no effect
9,K236E,disrupting interaction strength
10,K236A,with no effect
11,E223A,with no effect
12,E223K,with no effect
13,Y267K,with no effect
14,Y267E,with no effect
15,Y267A,with no effect
16,Y231K,with no effect
17,Y231E,with no effect
18,Y231A,disrupting interaction strength
19,I222K,with no effect
20,I222A,with no effect
21,I222E,disrupting interaction strength
22,K242E,with no effect
23,K242A,with no effect

row,Variant,effect of a mutation on the interaction
1,R212K,with no effect
2,R212A,with no effect
3,R212E,with no effect
4,E245K,with no effect
5,E245A,with no effect
6,F216E,with no effect
7,F216K,with no effect
8,F216A,with no effect
9,L253A,with no effect
10,L253K,with no effect
11,L253E,with no effect
12,G234A,disrupting interaction strength
13,G234E,with no effect
14,G234K,with no effect
15,G217K,with no effect
16,G217D,disrupting interaction strength
17,G217E,with no effect
18,G217A,with no effect
19,V240K,with no effect
20,V240E,with no effect
21,V240A,with no effect
22,I237E,with no effect
